Results reported in publication PMC10014064.

Key:
[1] = target: amyloid precursor protein (APP), mouse (mouse (endogenous in C57BL/6 hippocampus))
[2] = target: amyloid precursor protein (APP), mouse (mouse (endogenous in C57BL/6 hippocampus)); remark: listed apart in the source

GluN2B subunit of the NMDA receptor, mouse (from UniProt Q01097 27-1482)
reduction in NMDAR EPSCs in CA1 pyramidal neurons of infant mice with the APP C-terminal antibody Y188 (2.5 nM) in the recording pipette, compared with boiled Y188 [1]: 21.1% | effect of ifenprodil (5 μM, GluN2B antagonist) on NMDAR EPSCs in infant neurons previously incubated with the Y188 antibody against the APP C-terminal, versus the control condition [2]: 19.8%
